Source: patent US12679878B2, “CRF2 receptor agonists and their use in therapy” (SANOFI, priority 2020, dated 2026)
Starred links: 1 amine or outer side, 2 acyl side, 3 side chain; linkers in the order of their positions; H or OH if unused. Non-standard residues stand in square brackets, D forms with d. Groups on a side chain read outwards from the residue. No end group written: not given here. *: point of attachment. C18 diacid = O=C(O)CCCCCCCCCCCCCCCCC(=O)*; γGlu = O=C(O)[C@H](CCC(=O)[*:2])N[*:1]; AEEA = NCCOCCOCC(=O)O; Aib = CC(C)(N)C(=O)O

T1: anti-target CRF1R receptor (UniProt P34998 24-415, limits assumed)
T1 sequence (looked up): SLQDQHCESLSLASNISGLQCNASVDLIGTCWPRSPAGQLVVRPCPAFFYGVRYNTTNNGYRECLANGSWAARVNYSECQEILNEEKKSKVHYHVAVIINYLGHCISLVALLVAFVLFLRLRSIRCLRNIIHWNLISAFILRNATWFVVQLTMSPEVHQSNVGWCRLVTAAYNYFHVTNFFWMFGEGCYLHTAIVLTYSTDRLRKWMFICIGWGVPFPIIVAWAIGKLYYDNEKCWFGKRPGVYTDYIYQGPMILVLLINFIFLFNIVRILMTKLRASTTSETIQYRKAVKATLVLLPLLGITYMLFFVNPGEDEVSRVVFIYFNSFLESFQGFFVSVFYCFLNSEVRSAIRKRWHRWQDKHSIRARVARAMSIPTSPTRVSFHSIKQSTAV

B1: peptide of SEQ ID NO: 87 (peptide)
peptide: IVLSLDVPIKLK([AEEA-AEEA-γGlu-C18 diacid])QILLKQERQKKQREKAKTNKQILAQV-NH2
modifications: N-terminus assumed
SMILES: CC[C@H](C)[C@H](N)C(=O)N[C@H](C(=O)N[C@@H](CC(C)C)C(=O)N[C@@H](CO)C(=O)N[C@@H](CC(C)C)C(=O)N[C@@H](CC(=O)O)C(=O)N[C@H](C(=O)N1CCC[C@H]1C(=O)N[C@H](C(=O)N[C@@H](CCCCN)C(=O)N[C@@H](CC(C)C)C(=O)N[C@@H](CCCCNC(=O)COCCOCCNC(=O)COCCOCCNC(=O)CC[C@H](NC(=O)CCCCCCCCCCCCCCCCC(=O)O)C(=O)O)C(=O)N[C@@H](CCC(N)=O)C(=O)N[C@H](C(=O)N[C@@H](CC(C)C)C(=O)N[C@@H](CC(C)C)C(=O)N[C@@H](CCCCN)C(=O)N[C@@H](CCC(N)=O)C(=O)N[C@@H](CCC(=O)O)C(=O)N[C@@H](CCCNC(=N)N)C(=O)N[C@@H](CCC(N)=O)C(=O)N[C@@H](CCCCN)C(=O)N[C@@H](CCCCN)C(=O)N[C@@H](CCC(N)=O)C(=O)N[C@@H](CCCNC(=N)N)C(=O)N[C@@H](CCC(=O)O)C(=O)N[C@@H](CCCCN)C(=O)N[C@@H](C)C(=O)N[C@@H](CCCCN)C(=O)N[C@H](C(=O)N[C@@H](CC(N)=O)C(=O)N[C@@H](CCCCN)C(=O)N[C@@H](CCC(N)=O)C(=O)N[C@H](C(=O)N[C@@H](CC(C)C)C(=O)N[C@@H](C)C(=O)N[C@@H](CCC(N)=O)C(=O)N[C@H](C(N)=O)C(C)C)[C@@H](C)CC)[C@@H](C)O)[C@@H](C)CC)[C@@H](C)CC)C(C)C)C(C)C
B2: peptide of SEQ ID NO: 99 (peptide)
peptide: IVLSLDVPIKLK([AEEA-AEEA-γGlu-C18 diacid])KILLKQERQKK[Aib]REQAEKNKQILAQV-NH2
modifications: N-terminus assumed
SMILES: CC[C@H](C)[C@H](N)C(=O)N[C@H](C(=O)N[C@@H](CC(C)C)C(=O)N[C@@H](CO)C(=O)N[C@@H](CC(C)C)C(=O)N[C@@H](CC(=O)O)C(=O)N[C@H](C(=O)N1CCC[C@H]1C(=O)N[C@H](C(=O)N[C@@H](CCCCN)C(=O)N[C@@H](CC(C)C)C(=O)N[C@@H](CCCCNC(=O)COCCOCCNC(=O)COCCOCCNC(=O)CC[C@H](NC(=O)CCCCCCCCCCCCCCCCC(=O)O)C(=O)O)C(=O)N[C@@H](CCCCN)C(=O)N[C@H](C(=O)N[C@@H](CC(C)C)C(=O)N[C@@H](CC(C)C)C(=O)N[C@@H](CCCCN)C(=O)N[C@@H](CCC(N)=O)C(=O)N[C@@H](CCC(=O)O)C(=O)N[C@@H](CCCNC(=N)N)C(=O)N[C@@H](CCC(N)=O)C(=O)N[C@@H](CCCCN)C(=O)N[C@@H](CCCCN)C(=O)NC(C)(C)C(=O)N[C@@H](CCCNC(=N)N)C(=O)N[C@@H](CCC(=O)O)C(=O)N[C@@H](CCC(N)=O)C(=O)N[C@@H](C)C(=O)N[C@@H](CCC(=O)O)C(=O)N[C@@H](CCCCN)C(=O)N[C@@H](CC(N)=O)C(=O)N[C@@H](CCCCN)C(=O)N[C@@H](CCC(N)=O)C(=O)N[C@H](C(=O)N[C@@H](CC(C)C)C(=O)N[C@@H](C)C(=O)N[C@@H](CCC(N)=O)C(=O)N[C@H](C(N)=O)C(C)C)[C@@H](C)CC)[C@@H](C)CC)[C@@H](C)CC)C(C)C)C(C)C
B3: peptide of SEQ ID NO: 100 (peptide)
peptide: IVLSLDVPIKLK([AEEA-AEEA-γGlu-C18 diacid])KILLKQERQKK[Aib]REQAETN[Aib]QILAQV-NH2
modifications: N-terminus assumed
SMILES: CC[C@H](C)[C@H](N)C(=O)N[C@H](C(=O)N[C@@H](CC(C)C)C(=O)N[C@@H](CO)C(=O)N[C@@H](CC(C)C)C(=O)N[C@@H](CC(=O)O)C(=O)N[C@H](C(=O)N1CCC[C@H]1C(=O)N[C@H](C(=O)N[C@@H](CCCCN)C(=O)N[C@@H](CC(C)C)C(=O)N[C@@H](CCCCNC(=O)COCCOCCNC(=O)COCCOCCNC(=O)CC[C@H](NC(=O)CCCCCCCCCCCCCCCCC(=O)O)C(=O)O)C(=O)N[C@@H](CCCCN)C(=O)N[C@H](C(=O)N[C@@H](CC(C)C)C(=O)N[C@@H](CC(C)C)C(=O)N[C@@H](CCCCN)C(=O)N[C@@H](CCC(N)=O)C(=O)N[C@@H](CCC(=O)O)C(=O)N[C@@H](CCCNC(=N)N)C(=O)N[C@@H](CCC(N)=O)C(=O)N[C@@H](CCCCN)C(=O)N[C@@H](CCCCN)C(=O)NC(C)(C)C(=O)N[C@@H](CCCNC(=N)N)C(=O)N[C@@H](CCC(=O)O)C(=O)N[C@@H](CCC(N)=O)C(=O)N[C@@H](C)C(=O)N[C@@H](CCC(=O)O)C(=O)N[C@H](C(=O)N[C@@H](CC(N)=O)C(=O)NC(C)(C)C(=O)N[C@@H](CCC(N)=O)C(=O)N[C@H](C(=O)N[C@@H](CC(C)C)C(=O)N[C@@H](C)C(=O)N[C@@H](CCC(N)=O)C(=O)N[C@H](C(N)=O)C(C)C)[C@@H](C)CC)[C@@H](C)O)[C@@H](C)CC)[C@@H](C)CC)C(C)C)C(C)C
B4: peptide of SEQ ID NO: 132 (peptide)
peptide: IVLSLD[dV]PIKLK([AEEA-AEEA-γGlu-C18 diacid])QILLEQERQK[Aib]QREQAEKNKQILERV-NH2
modifications: N-terminus assumed
SMILES: CC[C@H](C)[C@H](N)C(=O)N[C@H](C(=O)N[C@@H](CC(C)C)C(=O)N[C@@H](CO)C(=O)N[C@@H](CC(C)C)C(=O)N[C@@H](CC(=O)O)C(=O)N[C@@H](C(=O)N1CCC[C@H]1C(=O)N[C@H](C(=O)N[C@@H](CCCCN)C(=O)N[C@@H](CC(C)C)C(=O)N[C@@H](CCCCNC(=O)COCCOCCNC(=O)COCCOCCNC(=O)CC[C@H](NC(=O)CCCCCCCCCCCCCCCCC(=O)O)C(=O)O)C(=O)N[C@@H](CCC(N)=O)C(=O)N[C@H](C(=O)N[C@@H](CC(C)C)C(=O)N[C@@H](CC(C)C)C(=O)N[C@@H](CCC(=O)O)C(=O)N[C@@H](CCC(N)=O)C(=O)N[C@@H](CCC(=O)O)C(=O)N[C@@H](CCCNC(=N)N)C(=O)N[C@@H](CCC(N)=O)C(=O)N[C@@H](CCCCN)C(=O)NC(C)(C)C(=O)N[C@@H](CCC(N)=O)C(=O)N[C@@H](CCCNC(=N)N)C(=O)N[C@@H](CCC(=O)O)C(=O)N[C@@H](CCC(N)=O)C(=O)N[C@@H](C)C(=O)N[C@@H](CCC(=O)O)C(=O)N[C@@H](CCCCN)C(=O)N[C@@H](CC(N)=O)C(=O)N[C@@H](CCCCN)C(=O)N[C@@H](CCC(N)=O)C(=O)N[C@H](C(=O)N[C@@H](CC(C)C)C(=O)N[C@@H](CCC(=O)O)C(=O)N[C@@H](CCCNC(=N)N)C(=O)N[C@H](C(N)=O)C(C)C)[C@@H](C)CC)[C@@H](C)CC)[C@@H](C)CC)C(C)C)C(C)C
B5: peptide of SEQ ID NO: 136 (peptide)
peptide: IVLSLD[dV]PIKLK([AEEA-AEEA-γGlu-C18 diacid])QILLKQERQKK[Aib]RQKAEKNKQILAQV-NH2
modifications: N-terminus assumed
SMILES: CC[C@H](C)[C@H](N)C(=O)N[C@H](C(=O)N[C@@H](CC(C)C)C(=O)N[C@@H](CO)C(=O)N[C@@H](CC(C)C)C(=O)N[C@@H](CC(=O)O)C(=O)N[C@@H](C(=O)N1CCC[C@H]1C(=O)N[C@H](C(=O)N[C@@H](CCCCN)C(=O)N[C@@H](CC(C)C)C(=O)N[C@@H](CCCCNC(=O)COCCOCCNC(=O)COCCOCCNC(=O)CC[C@H](NC(=O)CCCCCCCCCCCCCCCCC(=O)O)C(=O)O)C(=O)N[C@@H](CCC(N)=O)C(=O)N[C@H](C(=O)N[C@@H](CC(C)C)C(=O)N[C@@H](CC(C)C)C(=O)N[C@@H](CCCCN)C(=O)N[C@@H](CCC(N)=O)C(=O)N[C@@H](CCC(=O)O)C(=O)N[C@@H](CCCNC(=N)N)C(=O)N[C@@H](CCC(N)=O)C(=O)N[C@@H](CCCCN)C(=O)N[C@@H](CCCCN)C(=O)NC(C)(C)C(=O)N[C@@H](CCCNC(=N)N)C(=O)N[C@@H](CCC(N)=O)C(=O)N[C@@H](CCCCN)C(=O)N[C@@H](C)C(=O)N[C@@H](CCC(=O)O)C(=O)N[C@@H](CCCCN)C(=O)N[C@@H](CC(N)=O)C(=O)N[C@@H](CCCCN)C(=O)N[C@@H](CCC(N)=O)C(=O)N[C@H](C(=O)N[C@@H](CC(C)C)C(=O)N[C@@H](C)C(=O)N[C@@H](CCC(N)=O)C(=O)N[C@H](C(N)=O)C(C)C)[C@@H](C)CC)[C@@H](C)CC)[C@@H](C)CC)C(C)C)C(C)C

biological target: T1, anti-target CRF1R receptor; assay: cell-based or functional assay

Q: Which “EC50[nM] 0% HSA (cAMP, CRF1R-overexpression CHO cells)” value (shortened to “EC50[nM] 0% HSA”) does the source give for B1 here?
A: The value was greater than 1000 nM.

Q: And the “Emax (%) (cAMP, CRF1R-overexpression CHO cells)” value (shortened to “Emax (%)”)?
A: Its value is -0.2%.

Q: B2 was tested. Which “EC50[nM] 0% HSA” value did it give?
A: The value was greater than 1000 nM.

Q: What about the “Emax (%)” value of the same binder?
A: Its value is 3.25%.

Q: With B3 as the binder, how does the “EC50[nM] 0% HSA” value read?
A: The value was greater than 1000 nM.

Q: And the “Emax (%)” value?
A: The value was 5.06%.

Q: How did the “EC50[nM] 0% HSA” value turn out when B4 was run?
A: Its value is greater than 1000 nM.

Q: What about the “Emax (%)” value of the same binder?
A: Its value is 36.9%.

Q: Which “EC50[nM] 0% HSA” value does the source give for B5 here?
A: Its value is greater than 1000 nM.

Q: What about the “Emax (%)” value of the same binder?
A: Its value is 21.8%.

biological target: rat CRF2R α receptor (rat, UniProt P47866 20-411); assay: cell-based or functional assay
Sequence (P47866 20-411): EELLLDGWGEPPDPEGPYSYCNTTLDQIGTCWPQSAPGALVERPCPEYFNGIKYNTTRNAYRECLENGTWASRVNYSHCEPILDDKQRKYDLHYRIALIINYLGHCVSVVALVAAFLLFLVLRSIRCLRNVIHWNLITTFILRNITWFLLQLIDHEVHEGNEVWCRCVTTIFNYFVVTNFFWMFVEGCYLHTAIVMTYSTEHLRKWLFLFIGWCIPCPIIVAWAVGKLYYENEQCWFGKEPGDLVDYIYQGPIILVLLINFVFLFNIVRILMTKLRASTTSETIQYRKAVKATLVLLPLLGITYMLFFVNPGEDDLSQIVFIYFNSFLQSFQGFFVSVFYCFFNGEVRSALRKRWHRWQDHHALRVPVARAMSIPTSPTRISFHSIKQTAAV

Q: For B1, which “EC50 [nM], 0% HSA (cAMP, A7R5 cells)” value is on record?
A: The value was 1.49 nM.

Q: How did the “EC50 [nM], 0% HSA (cAMP, A7R5 cells)” value turn out when B2 was run?
A: Its value is 0.62 nM.

Q: How did the “EC50 [nM], 0% HSA (cAMP, A7R5 cells)” value turn out when B3 was run?
A: The value was 7.52 nM.

Q: Which “EC50 [nM], 0% HSA (cAMP, A7R5 cells)” value does the source give for B4 here?
A: Its value is 0.79 nM.

Q: Which “EC50 [nM], 0% HSA (cAMP, A7R5 cells)” value does the source give for B5 here?
A: The value was 0.38 nM.
